# Test results from patent US10006010B2, “Cytochrome P450 fusion protein” (The University of York, priority 2014, dated 2018).
# Experiments:
# Assay type in all cases: biochemical
# [1] = Recombinant oxidoreductase enzyme assay (E. coli-expressed, purified), substrate codeinone; conditions: for nmol product formation at pH 6.0 / nmol product formation at pH 7.0 / nmol product formation at pH 8.0 / nmol product formation at pH 9.0: substrate codeinone
# Method: (§1) The coding sequences of oxidoreductase A and B (Seq ID NO 6 and NO 10, respectively) were codon optimised for expression in E. coli and the synthetic genes were cloned into the vector pET28 to yield a recombinant C-terminal 6×-His tagged enzymes (GenScript, Piscataway, N.J., USA). The constructs were transformed into E. coli Arctic express strain (Agilent Technologies, Wokingham, UK). Per construct, 3-5 freshly transformed Arctic express E. coli colonies were pre-inoculated in 10 mL 2YT medium containing 100 mg/L kanamycin and 20 mg/L gentamycin and incubated at 37° C. overnight. A 5-mL aliquot was used to inoculate 500 mL of the above medium not containing antibiotics and cells were allowed to grow at 30° C. until OD600=0.5-0.7. A 1-mL aliquot of the uninduced cells was removed and spun down at 14,000×g and the cell pellet was lysed in SDS-PAGE sample buffer. 1 mM IPTG was added to the culture and then incubated at 20° C. for 24 h. Cells were then harvested following a 5 min spin at 5,000×g and resuspended in 20 mL ice-cold extraction buffer (0.1 M Tris pH 8, 0.3 M NaCl, 0.1% (v/v) Tween 20 and Halt EDTA-free protease inhibitor cocktail (Pierce/Thermoscientific, Cramlington, UK)). Bacterial suspensions were lysed in a French Press at 4° C. using a 25 kpsi disruption cycle (Model TS0.75 KU, Constant Cell Disruption Systems, Daventry, UK). Cell lysates were then spun down at 12,000×g for 20 min at 4° C. and thus fractionated into supernatant (soluble fraction) and pellet.
# (§2) A 20 mL soluble fraction was filtered through a 0.45 μm syringe filter and the His-tagged proteins were purified using a His Trap Fast Flow crude 5 mL column (GE Healthcare, Little Chalfont, UK) installed in an AKTA Purifier UPC 10 System (GE Healthcare, Sweden) at 4° C. under the following steps: column equilibration in 50 mL 0.1 M Tris pH 8, 0.3 M NaCl, 0.1% (v/v) Tween 20 at 2 mL/min; sample loading at 0.4 mL/min; column wash in 50 mL 0.1 M Tris pH 8, 0.3 M NaCl, 0.1% (v/v) Tween 20, 5 mM imidazole at 2 mL/min; elution in 100 mL 0.1 M Tris pH 8, 0.3 M NaCl, 0.1% (v/v) Tween 20, and a 10-500 mM imidazole gradient at 2 mL/min. Two mL fractions were individually collected. Protein absorbance at 280 nm was monitored throughout the purification procedure. Elution fractions showing absorbance peaks were collected and analysed through SDS-PAGE. Purified proteins (Seq ID NO 3 and 11, respectively) were quantified using Coomassie Plus Protein Assay (Pierce/Thermoscientific, Cramlington, UK) and desalted to remove any inhibitors/interferents using 10 mL Zeba Spin Desalting Columns MWCO 7K, (Pierce/Thermoscientific, Cramlington, UK) pre-equilibrated in 20 mM Potassium Phosphate buffer pH 7.
# (§3) General reaction set up was carried out as previously described (Lenz & Zenk, 1995, FEBS 233:132-139). Substrates (S)-reticuline, 1,2-dehydroreticuline and coclaurine were purchased from TRC Chemicals (Toronto, Canada) and codeinone was supplied by MacFarlan-Smith (Edinburgh, UK). Assay reactions contained […], 5 μg oxidoreductase A or B preparation, 100 mM buffer covering a range of pH values (potassium phosphate pH 6-8, glycine-NaOH pH 9) and 75 μM substrate. Reactions were incubated for 2 h at 37° C. and immediately frozen at −80° C. Reactions were dried down to powder in speedvac Gene Vac EZ-2 plus (Ipswich, UK) at 40° C. and resuspended in 100 μL 1:1 Hexane:Ethanol (v/v), 0.1% Diethylamine (v/v).
# Chiral separations were performed following the method previously described (Iwasa et al., 2009, Phytochem 70:198-206) and carried out on a TSP HPLC system equipped with a UV6000 LP detector, a P4000 pump and an AS 3000 autosampler (Thermo Separation Products/Thermoscientific, Waltham, Mass., USA) connected to a mass spectrometer LCQ Classic mass spectrometer (Finnigan Mat, San Jose, Calif., USA). A Lux 5μ Cellulose 3 250×4.6 mm column (Phenomenex, Macclesfield, UK) was used for separations. […]
# [2] = Recombinant oxidoreductase enzyme assay (E. coli-expressed, purified), substrate (S)-reticuline
# Method: as §1, §2
# as §3, with “(v/v). […]” for “(v/v).”
# [3] = Recombinant oxidoreductase enzyme assay (E. coli-expressed, purified), substrate coclaurine
# Method: as §1, §2
# as §3, with “(v/v). […]” for “(v/v).”
# [4] = Recombinant oxidoreductase enzyme assay (E. coli-expressed, purified), substrate 1,2-dehydroreticuline
# Method: as §1, §2
# as §3, with “(v/v). […]” for “(v/v).”
# [5] = Enzyme assay on soluble/microsomal preparations of S. cerevisiae expressing STORR fusion or modules, substrate 1,2-dehydroreticuline; conditions: soluble or microsomal preparations from S. cerevisiae; 100 μM substrate, 1 mM NADPH, 37° C. 3 hours
# From the text: Genscript created synthetic DNA sequences were created for PsCPR [Genbank accession AAC05021, (Rosco A. et al. (1997) Arch. Biochem. Biophys. 348, 369-77), the full length STORR (CYP82Y2-Oxidoreductatse (“Oxired”)) protein, the N-terminal CYP82Y2 module and C-terminal oxidoreductase (Oxidoreductase) module, that were codon optimised for expression is Saccharomyces cerevisiae. The codon-optimized sequences are provided with the SEQ ID NO 30-33.
# Expression vector pESC-TRP::soloxired was created by digesting the corresponding PCR product with NotI and PacI and inserting this behind the GAL10 promoter of pESC-TRP. pESC-TRP::CPR was created by digesting the corresponding PCR product with BamHI and XhoI and inserting this behind the GAL1 promoter of pESC-TRP. This was then used to created pESC-TRP::CPR::CYP82Y2 and pESC-TRP::CPR::CYP82Y2-Oxidoreductase. These plasmids were then transformed in S. cerevisiae G175 (Sorger D. et al. (2004) J. Biol. Chem. 279, 31190-6) using lithium acetate protocol (Geitz R. D. and Woods R. A. (2002) Methods in Enzymology 350, 87-96). Yeasts were cultivated in Synthetic Defined (SD) medium composed of 2% carbon source, 0.5% ammonium sulfate, 1.7 g L^−1 yeast nitrogen base (without amino acids and ammonium sulfate) and 1.92 g L^−1 or tryptophan drop-out supplement (Sigma-Aldrich, Gillingham, UK). Cultures grown using glucose as a carbon source were used to inoculate 200 ml cultures with raffinose as a carbon source to an OD 600 nm of 0.10 in 1 L conical flasks. […]
# Enzymes assays were set up in 250 μL volumes containing final concentrations of 50 mM Bis-tris propane buffer, 1 mM NADPH and 100 μM of substrate. […] The extract was then dissolved in 100 μL of 50:50:0.1 hexane/ethanol/diethylamine and analysed by the chiral HPLC method to determine the relative amounts of (R)- and (S)-reticuline.
# Poppy capsules were processed and analysed by UPLC-MS and R-scripts as previously described (“the standard method”; (Winzer T. et al. (2012) Science 336, 1704-8)). […]
# [6] = NADPH dependent reduction, pH 6 to 9
# [7] = product neopine, triplicate mean ± SD
molecule,measurement,setting,value
"Oxidoreductase B: Recombinant His-tagged close homologue (96% amino acid identity) of oxidoreductase A (SEQ ID NO 11), expressed in E. coli (protein, listed as Papaver somniferum, His tag) MESSGVPVITLSSGKLMPVLGMGTFEKVGKGSERERLVILKAIEVGYRYFDTAAAYETEEVLGEAIAEALQLGLIKSRDELFISSMLWCTDAHPDRVLLALQNSLRNLKLEYLDLYMLPFPVSLKPGKITMDIQEEDICRMDYRSVWAAMEECQNLGFTKSIGVSNFSCKKLQELMATANIPPDVNQVEMSPAFQQKKLRDYCNANNILVSAVSILGSNGTPWGSNAVLGSEVLRKIAMAKGKSVAQVSMRWVYDQGASLVVKSFSEERLRENLNIFDWELTKEDHEKIGEIPQCRILSAYFLVSPNGPFKSQEELWDDEA",formation of codeine from codeinone (in words),[1]; [6],did not form codeine
same,formation of neopine from codeinone (in words),[1]; [6],neopine production within pH values 6 to 8
same,nmol product formation at pH 6.0,[1]; product codeine,0.0 nmol
same,nmol product formation at pH 7.0,[1]; product codeine,0.0 nmol
same,nmol product formation at pH 8.0,[1]; product codeine,0.0 nmol
same,nmol product formation at pH 9.0,"[1]; product codeine, triplicate mean ± SD",0.0 nmol
same,nmol product formation at pH 6.0,[1]; [7],0.040 ± 0.020 nmol
same,nmol product formation at pH 7.0,[1]; [7],0.005 ± 0.001 nmol
same,nmol product formation at pH 8.0,[1]; [7],0.016 ± 0.008 nmol
same,nmol product formation at pH 9.0,[1]; product neopine,0.000 nmol
same,transformation of the substrate (S)-reticuline (in words),[2]; pH 6 to 9,no transformation of the substrate
same,nmol product formation at pH 6.0,"[2]; substrate (S)-reticuline, expected product dehydroreticuline, pH 6.0",0.0 nmol
same,nmol product formation at pH 7.0,"[2]; substrate (S)-reticuline, expected product dehydroreticuline, pH 7.0",0.0 nmol
same,nmol product formation at pH 8.0,"[2]; substrate (S)-reticuline, expected product dehydroreticuline, pH 8.0",0.0 nmol
same,nmol product formation at pH 9.0,"[2]; substrate (S)-reticuline, expected product dehydroreticuline, pH 9.0",0.0 nmol
same,transformation of the substrate coclaurine (in words),[3]; pH 6 to 9,no transformation of the substrate
same,nmol product formation at pH 6.0,"[3]; substrate coclaurine, no product observed, pH 6.0, 75 μM substrate, NADPH, 2 h 37° C., triplicate mean ± SD",0.0 nmol
same,nmol product formation at pH 7.0,"[3]; substrate coclaurine, no product observed, pH 7.0",0.0 nmol
same,nmol product formation at pH 8.0,"[3]; substrate coclaurine, no product observed, pH 8.0",0.0 nmol
same,nmol product formation at pH 9.0,"[3]; substrate coclaurine, no product observed, pH 9.0",0.0 nmol
same,"conversion of 1,2-dehydroreticuline to (R)-reticuline (in words)",[4]; pH 6 to 9,efficiently converted
same,nmol product formation at pH 6.0,"[4]; substrate dehydroreticuline, product (R)-reticuline, pH 6.0, triplicate mean ± SD",0.148 ± 0.036 nmol
same,nmol product formation at pH 7.0,"[4]; substrate dehydroreticuline, product (R)-reticuline, pH 7.0, triplicate mean ± SD",0.130 ± 0.021 nmol
same,nmol product formation at pH 8.0,"[4]; substrate dehydroreticuline, product (R)-reticuline, pH 8.0, triplicate mean ± SD",0.164 ± 0.020 nmol
same,nmol product formation at pH 9.0,"[4]; substrate dehydroreticuline, product (R)-reticuline, pH 9.0, triplicate mean ± SD",0.202 ± 0.026 nmol
"oxidoreductase module: C-terminal oxidoreductase module of STORR (codon optimized SEQ ID NO 33) expressed in S. cerevisiae (protein, Yeast codon optimised Oxidoreductase) MESSGVPVITLGSGKVMPVLGMGTFEKVGKGSERERLAILKAIEVGYRYFDTAAAYETEEVLGEAIAEALQLGLVKSRDELFISSMLWCTDAHADRVLLALQNSLRNLKLEYVDLYMLPFPASLKPGKITMDIPEEDICRMDYRSVWAAMEECQNLGFTKSIGVSNFSCKKLQELMATANIPPAVNQVEMSPAFQQKKLREYCNANNILVSAISVLGSNGTPWGSNAVLGSEVLKKIAMAKGKSVAQVSMRWVYEQGASLVVKSFSEERLRENLNIFDWELTKEDHEKIGEIPQCRILSAYFLVSPNGPFKSQEELWDDEA","conversion efficiency of 1,2-dehydroreticuline to (R)-reticuline",[5],100%
